The supplement of paper PMC12667976
± gives the standard error.

B1: library; numbered along this chain (parent)
chain: MATDAALRRLLRLHRTEIAVAVDSAFPLLHALADHDVVPEDKFQETLHLKEKEGCPQAFHALLSWLLTQDSTAILDFWRVLFKDYNLERYGRLQPILDSFPKDVDLSQPRKGRKPPAVPKALVPPPRLPTKRKASEEARAAAPAALTPRGTASPGSQLKAKPPKKPESSAEQQRLPLGNGIQTMSASVQRAVAMSSGDVPGARGAVEGILIQQVFESGGSKKCIQVGGEFYTPSKFEDSGSGKNKARSSSGPKPLVRAKGAQGAAPGGGEARLGQQGSVPAPLALPSDPQLHQKNEDECAVCRDGGELICCDGCPRAFHLACLSPPLREIPSGTWRCSSCLQATVQEVQPRAEEPRPQEPPVETPLPPGLRSAGEEVRGPPGEPLAGMDTTLVYKHLPAPPSAAPLPGLDSSALHPLLCVGPEGQQNLAPGARCGVCGDGTDVLRCTHCAAAFHWRCHFPAGTSRPGTGLRCRSCSGDVTPAPVEGVLAPSPARLAPGPAKDDTASHEPALHRDDLESLLSEHTFDGILQWAIQSMARPAAPFPS

Variants of: B1
Assay: AIRE transcriptional activation functional score (insulin promoter-GFP; nonsense median 0, synonymous median 1) (normalised score); higher = higher AIRE activity (more reporter activation)
Conditions: with insulin promoter-GFP reporter in HEK293
Description: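 Deep mutational scan of full-length human AIRE (codon-optimized cDNA, DT-POPCode NNN libraries over three regions) integrated at a Bxb1 landing pad in HEK293 cells carrying an insulin core promoter-GFP reporter at a Flp-In site. Cells were sorted for the top 10% GFP about 14 days after transfection. Variant frequency log-ratios (select vs non-select, TileSeq) were rescaled so that the nonsense median is 0 and the synonymous median is 1, then averaged over biological replicates.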

AIRE transcriptional activation functional score, by site and new letter:
A61: L -0.166 ± 0.57 | Y -0.0286 ± 0.38 | F 0.26 ± 0.071 | I -0.471 ± 0.2 | E 0.619 ± 0.68 | N 0.59 ± 0.081 | P -0.68 ± 0.6 | H 1.26 ± 0.14 | W 1.46 ± 0.13 | V 0.328 ± 0.53 | R 0.646 ± 0.67 | M 0.552 ± 0.27 | Q 0.472 ± 0.21 | D 0.176 ± 0.057 | C -0.153 ± 0.5 | T 0.573 ± 0.52 | G 0.214 ± 0.29 | S 1.48 ± 0.25
S71: A 1.08 ± 0.21 | I 0.605 ± 0.47 | Y 1.52 ± 1.2 | G 0.809 ± 0.75 | T 1.05 ± 0.065 | M 0.472 ± 0.059 | D 1.61 ± 0.27 | C 0.858 ± 0.3 | R 0.321 ± 0.53 | H 1.32 ± 0.71 | W -0.0187 ± 0.13 | Q 2.02 ± 0.16 | N 0.235 ± 0.16 | V 0.229 ± 0.31 | P -0.532 ± 0.41 | E 1.17 ± 0.4 | L -0.359 ± 0.47 | K 1.2 ± 0.25 | F 0.353 ± 0.15
F59: N -0.0761 ± 0.11 | P 0.0711 ± 0.28 | S 0.2 ± 0.44 | V 0.903 ± 0.24 | R -0.191 ± 0.58 | Y -0.0924 ± 0.19 | Q -1.19 ± 0.16 | W 0.208 ± 0.13 | T 0.102 ± 0.45
L75: D -0.0941 ± 0.23 | T 1.46 ± 0.32 | Q 0.0287 ± 0.28 | A 0.288 ± 0.19 | K 0.732 ± 0.062 | S 0.842 ± 0.35 | F 0.688 ± 0.28 | V 1.31 ± 0.33 | C 0.732 ± 0.28 | R 0.518 ± 0.39 | W 2.01 ± 0.082 | P -0.233 ± 0.32 | N 1.01 ± 0.29 | M 0.71 ± 0.18 | Y 1.52 ± 0.12 | G 0.82 ± 0.23 | E -0.603 ± 0.18 | I 1.13 ± 0.5 | H 0.935 ± 1.1
I74: K 0.384 ± 0.13 | D 0.058 ± 0.41 | P 0.409 ± 0.41 | E -0.548 ± 0.08 | Y 0.19 ± 0.07 | T -0.246 ± 0.34 | Q 0.136 ± 0.17 | R -0.00714 ± 0.54 | G 0.496 ± 0.28 | A 0.186 ± 0.47 | H 0.604 ± 0.27 | L 0.0101 ± 0.28 | W 0.39 ± 0.23 | C 0.295 ± 0.23 | V 0.51 ± 0.27 | S -0.0735 ± 0.31 | F -0.0221 ± 0.088 | M 0.0325 ± 0.12 | N -0.347 ± 0.074
D70: P -0.549 ± 0.45 | L -0.362 ± 0.63 | F -0.152 ± 0.57 | S 2.47 ± 0.55 | C 0.296 ± 0.14 | V -0.0452 ± 0.4 | I 0.395 ± 0.96 | K 2.05 ± 0.09 | G 0.895 ± 0.36 | A -0.203 ± 0.38 | Y -0.642 ± 0.49 | H -0.0845 ± 0.37 | W -0.512 ± 0.13 | M -0.516 ± 0.19 | R 0.35 ± 0.4 | E 0.94 ± 0.4 | T 0.428 ± 0.28 | Q 0.436 ± 0.49 | N 0.992 ± 0.43
L67: T -0.29 ± 0.49 | R -0.769 ± 0.77 | S -0.0517 ± 0.24 | F -0.0388 ± 0.21 | Q -0.874 ± 0.39 | V 0.638 ± 0.51 | C -0.405 ± 0.18 | Y 0.237 ± 0.24 | P -0.378 ± 0.59 | M 0.554 ± 0.29 | I 0.391 ± 0.42 | E -0.592 ± 0.38 | H 0.742 ± 0.33 | K 0.25 ± 0.13 | D 0.698 ± 0.24 | W 0.0659 ± 0.065 | G -0.0868 ± 0.65 | N 0.265 ± 0.11 | A 0.0875 ± 0.38
T68: L 0.729 ± 0.36 | C 0.77 ± 0.18 | H 0.424 ± 0.27 | Q -1.24 ± 0.071 | I -0.358 ± 0.46 | S 0.804 ± 0.35 | F -0.0989 ± 0.12 | E -2.1 ± 0.14 | D -0.277 ± 0.067 | W -0.374 ± 0.096 | A 0.312 ± 0.28 | M 0.985 ± 0.062 | P 0.108 ± 0.16 | N 0.581 ± 0.61 | G 0.848 ± 0.95 | Y 0.495 ± 0.42 | V 0.624 ± 0.46 | K 0.868 ± 0.12 | R 0.304 ± 0.66
L62: A -0.0777 ± 0.31 | I -0.601 ± 0.32 | P -0.295 ± 0.47 | W 0.305 ± 0.099 | K -0.404 ± 0.34 | Y 0.0998 ± 0.29 | E -0.679 ± 0.41 | D -0.0278 ± 0.14 | N 0.232 ± 0.31 | G -0.253 ± 0.25 | F -0.766 ± 0.19 | S 0.0796 ± 0.81 | V 0.0204 ± 0.24 | M 0.558 ± 0.11 | R -0.00966 ± 0.95 | C 0.584 ± 0.15 | Q 0.0502 ± 0.23 | T -0.152 ± 0.78 | H -0.594 ± 0.34
A73: I 1.33 ± 0.14 | G -0.592 ± 0.48 | H 2.12 ± 0.25 | V 1.1 ± 0.32 | R 1.26 ± 0.79 | S 0.179 ± 0.56 | Y 0.555 ± 0.91 | Q -1.02 ± 0.79 | N -0.949 ± 0.43 | F 0.15 ± 0.087 | W -0.767 ± 0.23 | E 0.775 ± 0.12 | L 0.61 ± 0.97 | C 0.629 ± 0.31 | D -0.0868 ± 0.094 | P 0.676 ± 0.44 | T 1.01 ± 0.13
D76: V 0.795 ± 0.29 | M 2.3 ± 0.11 | I 0.22 ± 0.4 | R 0.463 ± 0.69 | G -0.331 ± 0.51 | H 0.235 ± 0.16 | Y 0.302 ± 0.36 | C 0.409 ± 0.76 | A 0.43 ± 0.44 | L 0.535 ± 0.84 | T 0.0165 ± 0.26 | N -0.077 ± 0.96 | W 0.516 ± 0.083 | S 0.371 ± 0.14 | E 0.132 ± 0.51 | F -0.202 ± 0.69
L63: H -0.128 ± 0.63 | W 0.381 ± 0.093 | G 0.772 ± 0.4 | N 0.0814 ± 0.2 | P 0.339 ± 0.63 | D -0.402 ± 0.66 | T -0.37 ± 0.2 | E -1.39 ± 0.13 | V 0.617 ± 0.34 | K -0.721 ± 0.11 | Q -0.326 ± 0.27 | A 0.181 ± 0.47 | S -0.272 ± 0.55 | Y -0.421 ± 0.5 | C -0.0612 ± 0.18 | M -0.458 ± 0.078 | I 0.588 ± 0.7 | F 0.298 ± 0.27 | R -0.0432 ± 0.48
S64: K -0.37 ± 0.16 | A -0.0317 ± 0.36 | I -0.0655 ± 0.31 | E -0.72 ± 0.23 | R -0.473 ± 0.57 | N 0.278 ± 0.14 | D -0.252 ± 0.077 | Q -0.939 ± 0.095 | F 0.0385 ± 0.17 | H 0.583 ± 0.12 | V -0.0585 ± 0.4 | C -0.513 ± 0.2 | G 0.447 ± 0.49 | T 0.485 ± 0.82 | W 0.42 ± 0.18 | P 0.795 ± 0.47 | Y 0.513 ± 0.21 | M -0.0813 ± 0.17 | L -0.114 ± 0.42
L66: S -0.186 ± 0.46 | A 0.62 ± 0.47 | Y 0.687 ± 0.4 | I 0.885 ± 0.42 | E -0.037 ± 0.99 | V 0.121 ± 0.2 | N -0.299 ± 0.66 | R -0.171 ± 0.6 | G -0.202 ± 0.45 | F -0.101 ± 0.092 | T -0.0651 ± 0.43 | M 0.0543 ± 0.14 | C -0.733 ± 0.54 | P 0.349 ± 0.9 | Q 0.233 ± 0.26 | K -0.126 ± 0.13 | H 0.316 ± 0.2 | D -0.102 ± 0.6 | W 0.0325 ± 0.056
Q69: C 0.105 ± 0.28 | T -0.236 ± 0.32 | N -0.248 ± 0.65 | W -0.383 ± 0.21 | D 0.261 ± 0.43 | V -0.0416 ± 0.26 | M -0.732 ± 0.14 | E 0.0374 ± 0.17 | G 0.383 ± 0.3 | Y 0.498 ± 0.32 | R 1.15 ± 0.56 | F -0.0774 ± 0.21 | L -0.119 ± 0.37 | H -0.135 ± 0.25 | I -0.279 ± 0.22 | S -0.2 ± 0.34 | K 0.102 ± 0.77 | A 0.0258 ± 0.39 | P 0.118 ± 0.37
T72: K 1.59 ± 0.38 | C 0.562 ± 0.31 | D 2.22 ± 1.8 | P 0.606 ± 0.35 | F 0.964 ± 0.3 | W 0.0941 ± 0.059 | S 0.667 ± 0.79 | H 1.39 ± 0.13 | L 0.84 ± 0.8 | G 0.0759 ± 0.77 | I 0.104 ± 0.57 | A 1.01 ± 0.49 | V 1.28 ± 0.59 | Y 0.224 ± 0.76 | R 0.0611 ± 0.49 | N 1.15 ± 0.55
H60: T 0.117 ± 0.24 | C -0.27 ± 0.15 | Q 0.338 ± 0.4 | E -0.56 ± 0.42 | S -0.00297 ± 0.25 | R 0.0862 ± 0.41 | D -0.0281 ± 0.26 | F 1.06 ± 0.24 | P -0.793 ± 0.31 | K -0.424 ± 0.78 | N 0.179 ± 0.12 | M 0.414 ± 0.035 | Y 0.332 ± 0.24 | W 0.431 ± 0.35 | G 0.0323 ± 0.62 | L -0.135 ± 0.34 | A -0.135 ± 0.21 | I 0.216 ± 0.5 | V -0.0783 ± 0.37
W65: H 0.542 ± 0.72 | I -0.311 ± 0.42 | E 0.0731 ± 0.092 | Q -0.357 ± 0.56 | K 0.535 ± 0.13 | M -0.0554 ± 0.18 | V -0.0047 ± 0.31 | N 0.316 ± 0.17 | G 0.22 ± 0.48 | T 1.03 ± 0.31 | C 0.469 ± 0.22 | D -1.55 ± 0.86 | A -0.93 ± 1.4 | S 0.269 ± 0.64 | P -0.233 ± 0.91 | F 0.122 ± 0.3 | Y -0.365 ± 0.21 | L 0.2 ± 0.59 | R -0.313 ± 0.32
F77: K 0.21 ± 0.52 | E 0.445 ± 0.46 | C 0.198 ± 0.17 | A 0.257 ± 0.36 | M 0.136 ± 0.39 | H 0.528 ± 0.61 | N -0.429 ± 1 | D -0.0172 ± 0.53 | L -0.0762 ± 0.36 | I 0.0486 ± 0.17 | G -0.0629 ± 0.48
